# Reference: US20080219985A1
# Where two headings read alike, the source gives them in different places.
# Key:
# Assay in all cases: cell-based or functional assay
# GPCR73a receptor (human) [1] = biological target: GPCR73a receptor (human) (UniProt Q8TCW9)
# GPCR73a receptor (human) [2] = biological target: GPCR73a receptor (human) (UniProt Q8TCW9); remark: listed apart in the source
# [3] = biological target: GPCR73b receptor (Homo sapiens (Human)) (UniProt Q8NFJ6)
# [4] = biological target: PROK2 receptor on Wky12-22 cells (rat aortic smooth muscle cells) (rat)
# [5] = biological target: GPCR73b receptor (Homo sapiens (Human)) (UniProt Q8NFJ6); remark: listed apart in the source
# Chain of GPCR73b receptor (Homo sapiens (Human)) (Q8NFJ6 whole entry): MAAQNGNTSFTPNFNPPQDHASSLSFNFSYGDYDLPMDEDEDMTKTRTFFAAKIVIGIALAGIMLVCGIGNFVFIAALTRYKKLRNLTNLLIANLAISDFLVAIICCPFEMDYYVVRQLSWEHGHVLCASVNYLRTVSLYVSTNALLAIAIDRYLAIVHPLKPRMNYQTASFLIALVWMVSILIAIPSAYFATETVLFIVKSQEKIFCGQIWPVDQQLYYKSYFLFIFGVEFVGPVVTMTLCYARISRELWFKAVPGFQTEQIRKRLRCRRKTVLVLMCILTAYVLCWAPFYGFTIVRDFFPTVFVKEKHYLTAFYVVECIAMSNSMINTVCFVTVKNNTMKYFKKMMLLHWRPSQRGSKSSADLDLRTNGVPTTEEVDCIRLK
# Chain of GPCR73a receptor (human) (Q8TCW9 whole entry): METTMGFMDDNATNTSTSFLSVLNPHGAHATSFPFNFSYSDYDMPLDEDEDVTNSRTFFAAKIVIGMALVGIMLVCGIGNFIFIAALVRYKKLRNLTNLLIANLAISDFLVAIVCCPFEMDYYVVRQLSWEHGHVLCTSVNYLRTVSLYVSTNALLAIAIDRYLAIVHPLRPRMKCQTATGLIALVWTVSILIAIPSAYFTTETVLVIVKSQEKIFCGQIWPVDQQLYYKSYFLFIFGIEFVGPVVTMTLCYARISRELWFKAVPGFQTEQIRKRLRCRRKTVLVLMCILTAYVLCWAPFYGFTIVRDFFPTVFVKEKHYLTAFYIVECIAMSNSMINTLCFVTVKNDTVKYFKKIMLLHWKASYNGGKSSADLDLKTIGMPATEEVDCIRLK
binder,measurement,setting,value
human PROK1 purchased from PeproTech (ligand) AVITGACERDVQCGAGTCCAISLWLRGLRMCTPLGREGEECHPGSHKVPFFRKRKHHTCPCLPNLLCSRFPDGRYRCSMDLKNINF,SRE-luciferase fold-induction at 1 ng/ml (fold-induction),GPCR73a receptor (human) [1],0.95
same,SRE-luciferase fold-induction at 3.2 ng/ml (fold-induction),GPCR73a receptor (human) [1],1.3
same,SRE-luciferase fold-induction at 10 ng/ml (fold-induction),GPCR73a receptor (human) [1],2.6
same,SRE-luciferase fold-induction at 32 ng/ml (fold-induction),GPCR73a receptor (human) [1],7.2
same,SRE-luciferase fold-induction at 320 ng/ml (fold-induction),GPCR73a receptor (human) [1],20.5
same,SRE-luciferase fold-induction at 1000 ng/ml (fold-induction),GPCR73a receptor (human) [1],15
same,SRE-luciferase fold-induction at 1 ng/ml (fold-induction),GPCR73a receptor (human) [2],1.2
same,SRE-luciferase fold-induction at 3.2 ng/ml (fold-induction),GPCR73a receptor (human) [2],1.6
same,SRE-luciferase fold-induction at 10 ng/ml (fold-induction),GPCR73a receptor (human) [2],2.5
same,SRE-luciferase fold-induction at 32 ng/ml (fold-induction),GPCR73a receptor (human) [2],5.8
same,SRE-luciferase fold-induction at 100 ng/ml (fold-induction),GPCR73a receptor (human) [2],11.4
same,SRE-luciferase fold-induction at 320 ng/ml (fold-induction),GPCR73a receptor (human) [2],24.4
same,SRE-luciferase fold-induction at 1000 ng/ml (fold-induction),GPCR73a receptor (human) [2],20
same,SRE-luciferase fold-induction at 1 ng/ml (fold-induction),[3],1.1
same,SRE-luciferase fold-induction at 3.2 ng/ml (fold-induction),[3],1.3
same,SRE-luciferase fold-induction at 10 ng/ml (fold-induction),[3],1.8
same,SRE-luciferase fold-induction at 32 ng/ml (fold-induction),[3],2.8
same,SRE-luciferase fold-induction at 100 ng/ml (fold-induction),[3],5.6
same,SRE-luciferase fold-induction at 320 ng/ml (fold-induction),[3],8.3
same,SRE-luciferase fold-induction at 1000 ng/ml (fold-induction),[3],8.4
same,EC50 of GROα secretion from Wky12-22 cells,[4],2.94 ng/mL
same,SRE-luciferase fold-induction at 3.2 ng/ml (fold-induction),[5],1.4
same,SRE-luciferase fold-induction at 32 ng/ml (fold-induction),[5],2.7
same,SRE-luciferase fold-induction at 100 ng/ml (fold-induction),[5],4.1
same,SRE-luciferase fold-induction at 320 ng/ml (fold-induction),[5],5.8
same,SRE-luciferase fold-induction at 1000 ng/ml (fold-induction),[5],6.1
